Experimental findings from article PMC8599580, “Focused Proteomics Analysis of Habu Snake (Protobothrops flavoviridis) Venom Using Antivenom-Based Affinity Chromatography Reveals Novel Myonecrosis-Enhancing Activity of Thrombin-Like Serine Proteases” (Frontiers in Pharmacology, 2021) are described below.

T1: [Asp49] PLA2 (Protobothrops flavoviridis, UniProt P06859 17-138)
T1 construct: hemolytic [Asp49] phospholipase A2 of Protobothrops flavoviridis; source: prepared from habu (Protobothrops flavoviridis) crude venom
T1 sequence (looked up): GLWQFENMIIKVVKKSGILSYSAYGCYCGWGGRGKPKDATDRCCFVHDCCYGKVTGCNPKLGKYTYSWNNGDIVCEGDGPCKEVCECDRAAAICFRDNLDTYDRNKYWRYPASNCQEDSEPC

B1: TLf1 (flavoxobin) (enzyme, Protobothrops flavoviridis)
chain: VIGGDECNINEHPFLVALYDAWSGRFLCGGTLINPEWVLTAAHCDSKNFKMKLGAHSQKVLNEDEQIRNPKEKFICPNKKNTEVLDKDIMLIKLDSPVSYSEHIAPLSLPSSPPSVGSVCRIMGWGSITPVEETFPDVPHCANINLLDDVECKPGYPELLPEYRTLCAGVLQGGIDTCGFDSGTPLICNGQFQGIVYIGSHPCGQSRKPGIYTKVFDYNAWIQSIIAGNTAATCLP
notes: flavoxobin, thrombin-like serine protease of Protobothrops flavoviridis; also called svSP01_TLf1; flavoxovin; source: purified from habu crude venom (CM-52 flow-through, Hi-trap benzamidine column)
B2: [Lys49]PLA2 (BPII) (natural protein)
chain: SLVQLWKMIFQETGKEAAKNYGLYGCNCGVGRRGKPKDATDSCCYVHKCCYKKVTGCNPKMDSYSYSWKNKAIVCGEKNPPCLKQVCECDKAVAICLRENLGTYNKKYTIYPKPFCKKADTC
notes: [Lys49] phospholipase A2 BPII of Protobothrops flavoviridis; also called myonecrotic [Lys49]; PLA2; source: prepared from habu (Protobothrops flavoviridis) crude venom
B3: [Lys49] PLA2 (BPII) (natural protein)
chain: B2 chain
notes: Basic protein II (BPII), [Lys49] phospholipase A2 myotoxin of Protobothrops flavoviridis venom; also called [Lys49]PLA2 myotoxin; myonecrotic [Lys49]; PLA2
B4: TLf2, thrombin-like serine protease TLSP2 (natural protein)
chain: IIGGDECNINEHRFLVALYTFRSRRLHCGGILINQEWVLSAARCNRKNIRIQLGMHSTNVINEDVQTRVPKEKFFCLSSKTHTRWNKDIMLIRLNSPVNNSTHIAPVSLPSNPPSLGSVCRVMGWGTISATKETHPDVPHCANINILDYSVCRAAYARLPATSRTLCAGILEGGKDSCKADSGGPLICNGEIQGIVSRGGHSCGQPRKPGLYTKVFDHLDWIKSIIAGNKDAICPP
notes: numbers count on: the mature protein; also called svSP02_TLf2; basic 30 kDa protein; source: purified from habu crude venom (CM-52 basic fraction #15, POROS HS column)

Common to all, as to details: both partners purified
The target of assay [1] is T1, [Asp49] PLA2. As to the kind of experiment: SPR; BIAcore X; TLf1 or TLf2 immobilised on a CM5 chip by amine coupling; BPII or [Asp49] PLA2 injected as analytes (12.5-100 ug/ml) in HBS (10 mM HEPES pH 7.4, 0.15 M NaCl, 3 mM EDTA, 0.005% surfactant P-20) at 20 uL/min; nonlinear least-squares fitting with BIAevaluation. On the technique in general: Surface plasmon resonance follows binding to a sensor surface in real time, without labels.

In assay [2] the target is B4. The assay is described as above.
The target in assay [3] is B1. The description is as above.
Assay [4] deals with T2, thrombin-like serine protease TLSP2 (TLf2) (Protobothrops flavoviridis, UniProt O13057 25-260).
T2 construct: also called svSP02_TLf2; basic 30 kDa protein; source: purified from habu (Protobothrops flavoviridis) crude venom (CM-52, POROS HS)
As to the kind of experiment: SPR; BIAcore X; TLf2 or TLf1 amine-coupled on CM5 chip; BPII or [Asp49] PLA2 injected as analytes (12.5-100 ug/ml) in HBS (10 mM HEPES pH 7.4, 0.15 M NaCl, 3 mM EDTA, 0.005% P-20), 20 uL/min; unmodified CM5 as control; regeneration 10 mM HCl.

The target in assay [5] is T3, flavoxobin (TLf1) (Protobothrops flavoviridis, UniProt P05620 25-260).
T3 construct: Flavoxobin (TLf1), thrombin-like serine protease of Protobothrops flavoviridis venom; also called flavoxovin; svSP01_TLf1
The assay is described as above.

The term Kd denotes the equilibrium constant for the complex coming apart. What is called koff is the rate constant with which the complex falls apart. Low readings indicate a long-lived complex, high ones a short-lived complex. The kon is the rate constant with which the complex forms. The low end stands for slower complex formation, the high end for faster complex formation.

Take B1: in assay [1], the Ka amounted to 371000 M⁻¹, the Kd came to 2690 nM, the koff turned out to be 0.0125 s⁻¹ and the kon is 4660 M⁻¹ s⁻¹.

In assay [2], B2 registered a Ka of 1.02e+07 M⁻¹, a dissociation rate constant (koff) of 0.00122 s⁻¹ and a kon of 12500 M⁻¹ s⁻¹. Further, in assay [3], the Ka was 6.56e+06 M⁻¹, the koff turned out to be 0.00257 s⁻¹ and the association rate constant (kon) was determined as 16900 M⁻¹ s⁻¹.

As for B3, the figures for the equilibrium dissociation constant (Kd) in assay [4] and in assay [5] were 97.9 nM and 152 nM, respectively.

B4: in assay [1], the Ka amounted to 7.9e+06 M⁻¹; the affinity, expressed as Kd, was 127 nM; the off-rate constant (koff) is 0.000791 s⁻¹; the kon amounted to 6250 M⁻¹ s⁻¹.
